Biological target: T1, Boi1 SH3 (BOI1_YEAST), P38041
T1 chain: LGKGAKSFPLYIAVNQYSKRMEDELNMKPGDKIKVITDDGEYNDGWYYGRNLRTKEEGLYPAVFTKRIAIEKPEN
Test: SPOT array

Row | Binder | normalised SPOT signal, Boehringer light units (BLU); mean over the file's lines of this peptide
1 | KSVPIPPRKNATLD [YJR113C 102-115] | 1140
2 | KRPPTAPQRKISLP [YPR171W 469-482] | 285
3 | KYDPDNPNKDKLGT [YBR235W 52-65] | 146
4 | LAPPLSPTKPSPLH [YDR425W 253-266] | 81.4
5 | KYGPLPPSRASVGS [YLR143W 388-401] | 551
6 | KTKPSIPPKKVELN [YPR171W 354-367] | 46
7 | KWEPSTPQRNGPIL [YCR102C 158-171] | 143
8 | KPKPPKPIKYHFED [YMR044W 286-299] | 154
9 | KSFPPPPLKPGQKT [YBR108W 84-97] | 112
10 | KYDPEDPNRRKLAR [YPL093W 387-400] | 310
11 | KRTPKIPEKDVKSD [YDR026C 223-236] | 151
12 | KNSPLAPIKKNVEL [YLL021W 1085-1098] | 180
13 | LARPPPPKRIRTDS [YKL139W 32-45] | 528
14 | KTKPTPPPKPSHLK [YNL020C 606-619] | 153
15 | KWEPSTPQRKGPIL [YLR460C 166-179] | 1870
16 | KPDPESPSKLRHYE [YBL101C 851-864] | 69.8
17 | KSKPKVPAKNPELE [YNL106C 1157-1170] | 166
18 | KSSPWSPYKVEKVL [YBR156C 161-174] | 117
19 | KTVPQSPKKPLSLL [YOR058C 193-206] | 101

Biological target: T2, Boi2 SH3 (BOI2_YEAST), P39969
T2 chain: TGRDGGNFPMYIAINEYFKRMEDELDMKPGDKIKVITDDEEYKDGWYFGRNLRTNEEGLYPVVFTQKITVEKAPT
Test: SPOT array

Row | Binder | normalised SPOT signal, Boehringer light units (BLU); mean over the file's lines of this peptide
20 | KSVPIPPRKNATLD [YJR113C 102-115] | 146
21 | KRPPTAPQRKISLP [YPR171W 469-482] | 51.3
22 | KYDPDNPNKDKLGT [YBR235W 52-65] | 66.7
23 | LAPPLSPTKPSPLH [YDR425W 253-266] | 6.5
24 | KYGPLPPSRASVGS [YLR143W 388-401] | 41.5
25 | KTKPSIPPKKVELN [YPR171W 354-367] | 34.8
26 | KWEPSTPQRNGPIL [YCR102C 158-171] | 31.6
27 | KPKPPKPIKYHFED [YMR044W 286-299] | 52.1
28 | KSFPPPPLKPGQKT [YBR108W 84-97] | 183
29 | KYDPEDPNRRKLAR [YPL093W 387-400] | 15.7
30 | KRTPKIPEKDVKSD [YDR026C 223-236] | 47.6
31 | KNSPLAPIKKNVEL [YLL021W 1085-1098] | 33.5
32 | LARPPPPKRIRTDS [YKL139W 32-45] | 70.2
33 | KTKPTPPPKPSHLK [YNL020C 606-619] | 71.3
34 | KWEPSTPQRKGPIL [YLR460C 166-179] | 43
35 | KPDPESPSKLRHYE [YBL101C 851-864] | 58.5
36 | KSKPKVPAKNPELE [YNL106C 1157-1170] | 46
37 | KSSPWSPYKVEKVL [YBR156C 161-174] | 122
38 | KTVPQSPKKPLSLL [YOR058C 193-206] | 53.9

Biological target: T3, Rvs167 SH3 (RV167_YEAST), P39743
T3 chain: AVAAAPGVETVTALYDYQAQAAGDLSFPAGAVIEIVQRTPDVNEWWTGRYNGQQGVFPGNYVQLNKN
Test: SPOT array

Row | Binder | normalised SPOT signal, Boehringer light units (BLU); mean over the file's lines of this peptide
39 | KSVPIPPRKNATLD [YJR113C 102-115] | 12100
40 | KRPPTAPQRKISLP [YPR171W 469-482] | 605
41 | KYDPDNPNKDKLGT [YBR235W 52-65] | 48.2
42 | LAPPLSPTKPSPLH [YDR425W 253-266] | 30.7
43 | KYGPLPPSRASVGS [YLR143W 388-401] | 65.7
44 | KTKPSIPPKKVELN [YPR171W 354-367] | 27.4
45 | KWEPSTPQRNGPIL [YCR102C 158-171] | 31.1
46 | KPKPPKPIKYHFED [YMR044W 286-299] | 6.8
47 | KSFPPPPLKPGQKT [YBR108W 84-97] | 57.7
48 | KYDPEDPNRRKLAR [YPL093W 387-400] | 30.9
49 | KRTPKIPEKDVKSD [YDR026C 223-236] | 242
50 | KNSPLAPIKKNVEL [YLL021W 1085-1098] | 26.7
51 | LARPPPPKRIRTDS [YKL139W 32-45] | 1260
52 | KTKPTPPPKPSHLK [YNL020C 606-619] | 8.2
53 | KWEPSTPQRKGPIL [YLR460C 166-179] | 51.1
54 | KPDPESPSKLRHYE [YBL101C 851-864] | 22.9
55 | KSKPKVPAKNPELE [YNL106C 1157-1170] | 50.8
56 | KSSPWSPYKVEKVL [YBR156C 161-174] | 156
57 | KTVPQSPKKPLSLL [YOR058C 193-206] | 17.8

Biological target: T4, Yfr024 SH3 (LSB3_YEAST), P43603
T4 chain: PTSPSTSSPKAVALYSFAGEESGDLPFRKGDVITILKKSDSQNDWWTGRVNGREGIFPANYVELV
Test: SPOT array

Row | Binder | normalised SPOT signal, Boehringer light units (BLU); mean over the file's lines of this peptide
58 | KSVPIPPRKNATLD [YJR113C 102-115] | 25100
59 | KRPPTAPQRKISLP [YPR171W 469-482] | 8630
60 | KYDPDNPNKDKLGT [YBR235W 52-65] | 20.9
61 | LAPPLSPTKPSPLH [YDR425W 253-266] | 111
62 | KYGPLPPSRASVGS [YLR143W 388-401] | 2010
63 | KTKPSIPPKKVELN [YPR171W 354-367] | 1930
64 | KWEPSTPQRNGPIL [YCR102C 158-171] | 3400
65 | KPKPPKPIKYHFED [YMR044W 286-299] | 249
66 | KSFPPPPLKPGQKT [YBR108W 84-97] | 220
67 | KYDPEDPNRRKLAR [YPL093W 387-400] | 222
68 | KRTPKIPEKDVKSD [YDR026C 223-236] | 342
69 | KNSPLAPIKKNVEL [YLL021W 1085-1098] | 252
70 | LARPPPPKRIRTDS [YKL139W 32-45] | 15700
71 | KTKPTPPPKPSHLK [YNL020C 606-619] | 16700
72 | KWEPSTPQRKGPIL [YLR460C 166-179] | 2430
73 | KPDPESPSKLRHYE [YBL101C 851-864] | 41.3
74 | KSKPKVPAKNPELE [YNL106C 1157-1170] | 396
75 | KSSPWSPYKVEKVL [YBR156C 161-174] | 253
76 | KTVPQSPKKPLSLL [YOR058C 193-206] | 280

Biological target: T5, Yhr016c SH3 (YSC84_YEAST), P32793
T5 chain: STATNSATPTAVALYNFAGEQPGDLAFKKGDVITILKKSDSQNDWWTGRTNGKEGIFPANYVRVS
Test: SPOT array

Row | Binder | normalised SPOT signal, Boehringer light units (BLU); mean over the file's lines of this peptide
77 | KSVPIPPRKNATLD [YJR113C 102-115] | 992
78 | KRPPTAPQRKISLP [YPR171W 469-482] | 1820
79 | KYDPDNPNKDKLGT [YBR235W 52-65] | 266
80 | LAPPLSPTKPSPLH [YDR425W 253-266] | 77.1
81 | KYGPLPPSRASVGS [YLR143W 388-401] | 488
82 | KTKPSIPPKKVELN [YPR171W 354-367] | 133
83 | KWEPSTPQRNGPIL [YCR102C 158-171] | 1620
84 | KPKPPKPIKYHFED [YMR044W 286-299] | 124
85 | KSFPPPPLKPGQKT [YBR108W 84-97] | 229
86 | KYDPEDPNRRKLAR [YPL093W 387-400] | 172
87 | KRTPKIPEKDVKSD [YDR026C 223-236] | 187
88 | KNSPLAPIKKNVEL [YLL021W 1085-1098] | 15.7
89 | LARPPPPKRIRTDS [YKL139W 32-45] | 3210
90 | KTKPTPPPKPSHLK [YNL020C 606-619] | 236
91 | KWEPSTPQRKGPIL [YLR460C 166-179] | 603
92 | KPDPESPSKLRHYE [YBL101C 851-864] | 241
93 | KSKPKVPAKNPELE [YNL106C 1157-1170] | 210
94 | KSSPWSPYKVEKVL [YBR156C 161-174] | 320
95 | KTVPQSPKKPLSLL [YOR058C 193-206] | 192

— paper PMC314469, “Protein Interaction Networks by Proteome Peptide Scanning” (PLoS Biology, 2004)
